Reference: article doi:10.1101/2022.01.11.475884 (bioRxiv, 2022)

Target: T1, purified Mfn2 (human, UniProt O95140 1-757)
T1 sequence (looked up): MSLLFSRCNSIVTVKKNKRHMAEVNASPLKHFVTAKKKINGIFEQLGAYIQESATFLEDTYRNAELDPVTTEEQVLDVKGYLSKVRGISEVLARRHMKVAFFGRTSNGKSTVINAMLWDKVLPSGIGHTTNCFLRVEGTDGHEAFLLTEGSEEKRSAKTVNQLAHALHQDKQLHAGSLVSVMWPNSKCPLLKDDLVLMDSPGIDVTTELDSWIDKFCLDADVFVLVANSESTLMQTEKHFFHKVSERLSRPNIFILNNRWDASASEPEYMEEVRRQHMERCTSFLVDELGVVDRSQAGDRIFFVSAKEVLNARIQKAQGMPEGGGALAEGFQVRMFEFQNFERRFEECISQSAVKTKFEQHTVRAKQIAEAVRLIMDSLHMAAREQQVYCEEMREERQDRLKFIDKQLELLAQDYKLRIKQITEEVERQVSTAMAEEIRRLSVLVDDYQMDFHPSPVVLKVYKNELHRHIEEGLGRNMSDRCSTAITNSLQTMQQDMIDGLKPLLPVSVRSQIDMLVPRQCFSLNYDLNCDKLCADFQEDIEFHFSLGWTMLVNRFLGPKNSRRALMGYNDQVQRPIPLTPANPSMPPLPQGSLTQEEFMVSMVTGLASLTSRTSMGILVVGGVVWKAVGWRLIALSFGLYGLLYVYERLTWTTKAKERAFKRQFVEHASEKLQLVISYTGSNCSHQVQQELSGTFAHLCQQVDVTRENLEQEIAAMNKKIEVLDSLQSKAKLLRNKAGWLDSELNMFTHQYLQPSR
Experiment: pull-down

B1: purified and biotinylated TAK1 (enzyme, human, UniProt O43318 1-606, looked up)
chain: MSTASAASSSSSSSAGEMIEAPSQVLNFEEIDYKEIEVEEVVGRGAFGVVCKAKWRAKDVAIKQIESESERKAFIVELRQLSRVNHPNIVKLYGACLNPVCLVMEYAEGGSLYNVLHGAEPLPYYTAAHAMSWCLQCSQGVAYLHSMQPKALIHRDLKPPNLLLVAGGTVLKICDFGTACDIQTHMTNNKGSAAWMAPEVFEGSNYSEKCDVFSWGIILWEVITRRKPFDEIGGPAFRIMWAVHNGTRPPLIKNLPKPIESLMTRCWSKDPSQRPSMEEIVKIMTHLMRYFPGADEPLQYPCQYSDEGQSNSATSTGSFMDIASTNTSNKSDTNMEQVPATNDTIKRLESKLLKNQAKQQSESGRLSLGASRGSSVESLPPTSEGKRMSADMSEIEARIAATTAYSKPKRGHRKTASFGNILDVPEIVISGNGQPRRRSIQDLTVTGTEPGQVSSRSSSPSVRMITTSGPTSEKPTRSHPWTPDDSTDTNGSDNSIPMAYLTLDHQLQPLAPCPNSKESMAVFEQHCKMAQEYMKVQTEIALLLQRKQELVAELDQDEKDQQNTSRLVQEHKKLLDENKSLSTYYQQCKKQLEVIRSQQQKRQGTS
modifications: biotinylated
binding result: binds
